From paper PMC10140031

Assays:
[1] = biological target: His-ISG65_(18-363)-Avi, C-terminally biotinylated (T. b. gambiense); experiment: SPR; biotinylated His-ISG65_(18-363)-Avi immobilised on Series S sensor chip CAP, BIAcore T200, 25 °C; 20 mM HEPES pH 7.5, 150 mM NaCl, 3 mM EDTA, 0.005% TWEEN-20; analytes C3d and C3d mutants (0.78-50 nM), native C3, C3b, C3MA, C3c
[2] = biological target: His-C3d-Avi, biotinylated (human); experiment: SPR; biotinylated His-C3d-Avi immobilised on Series S sensor chip CAP, BIAcore T200, 25 °C; 20 mM HEPES pH 7.5, 150 mM NaCl, 3 mM EDTA, 0.005% TWEEN-20; analytes ISG65 and ISG65 mutants 1.5-100 nM
[3] = biological target: Alexa Fluor 594 labelled human C3b (human) (UniProt P01024); experiment: flow cytometry on cells; competition: recombinant ISG65 at 1.5-fold molar excess preincubated with AF594 labelled C3b for 10 min before addition to T. b. gambiense cells on ice
[4] = biological target: native human complement C3 (human) (UniProt P01024)
[5] = biological target: His-C3d-Avi, biotinylated; experiment: SPR
[6] = biological target: His-ISG65_(18-363) Lys97Ala (T. b. gambiense); experiment: SPR; His-ISG65_(18-363) covalently immobilised via amine coupling; C3a (8-0.25 µM) flown over at 30 µl/min, 100 s association, 300 s dissociation; regeneration 1 M NaCl
[7] = biological target: His-ISG65_(18-363) Glu302Ala (T. b. gambiense); experiment: as above
[8] = biological target: His-ISG65_(18-363), extracellular domain of invariant surface glycoprotein 65 of T. b. gambiense (T. b. gambiense); experiment: as above
[9] = biological target: His-ISG65_(18-363), extracellular domain of invariant surface glycoprotein 65 of T. b. gambiense (T. b. gambiense); experiment: cross-linking; ISG65 and C3b mixed 2:1, 100x molar excess of DSA, 20 mM HEPES pH 7.5, 150 mM NaCl, room temperature 30 min; SDS-PAGE

Chain of human complement C3a (P01024 672-748): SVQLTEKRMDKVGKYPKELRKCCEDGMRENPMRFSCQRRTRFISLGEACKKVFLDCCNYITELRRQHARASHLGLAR
Chain of native human complement C3 (human) (P01024 23-667, chain 1 of 2): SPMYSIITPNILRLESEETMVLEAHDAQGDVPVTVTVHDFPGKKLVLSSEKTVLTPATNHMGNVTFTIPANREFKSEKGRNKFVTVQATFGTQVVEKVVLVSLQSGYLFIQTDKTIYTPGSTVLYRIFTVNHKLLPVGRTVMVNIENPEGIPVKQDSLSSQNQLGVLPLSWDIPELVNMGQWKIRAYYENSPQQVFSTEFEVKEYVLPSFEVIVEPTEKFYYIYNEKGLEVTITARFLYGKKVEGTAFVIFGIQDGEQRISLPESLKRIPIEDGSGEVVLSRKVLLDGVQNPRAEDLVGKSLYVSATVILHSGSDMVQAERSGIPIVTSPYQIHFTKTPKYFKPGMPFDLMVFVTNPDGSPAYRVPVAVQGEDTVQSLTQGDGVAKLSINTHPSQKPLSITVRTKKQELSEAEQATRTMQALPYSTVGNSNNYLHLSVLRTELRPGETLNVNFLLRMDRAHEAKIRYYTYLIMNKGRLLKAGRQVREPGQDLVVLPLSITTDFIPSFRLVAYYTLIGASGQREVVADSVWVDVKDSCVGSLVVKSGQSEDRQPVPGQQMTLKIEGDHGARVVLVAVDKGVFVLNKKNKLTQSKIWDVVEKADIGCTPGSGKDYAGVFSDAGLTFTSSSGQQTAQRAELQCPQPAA
Chain of native human complement C3 (human) (P01024 672-1663, chain 2 of 2): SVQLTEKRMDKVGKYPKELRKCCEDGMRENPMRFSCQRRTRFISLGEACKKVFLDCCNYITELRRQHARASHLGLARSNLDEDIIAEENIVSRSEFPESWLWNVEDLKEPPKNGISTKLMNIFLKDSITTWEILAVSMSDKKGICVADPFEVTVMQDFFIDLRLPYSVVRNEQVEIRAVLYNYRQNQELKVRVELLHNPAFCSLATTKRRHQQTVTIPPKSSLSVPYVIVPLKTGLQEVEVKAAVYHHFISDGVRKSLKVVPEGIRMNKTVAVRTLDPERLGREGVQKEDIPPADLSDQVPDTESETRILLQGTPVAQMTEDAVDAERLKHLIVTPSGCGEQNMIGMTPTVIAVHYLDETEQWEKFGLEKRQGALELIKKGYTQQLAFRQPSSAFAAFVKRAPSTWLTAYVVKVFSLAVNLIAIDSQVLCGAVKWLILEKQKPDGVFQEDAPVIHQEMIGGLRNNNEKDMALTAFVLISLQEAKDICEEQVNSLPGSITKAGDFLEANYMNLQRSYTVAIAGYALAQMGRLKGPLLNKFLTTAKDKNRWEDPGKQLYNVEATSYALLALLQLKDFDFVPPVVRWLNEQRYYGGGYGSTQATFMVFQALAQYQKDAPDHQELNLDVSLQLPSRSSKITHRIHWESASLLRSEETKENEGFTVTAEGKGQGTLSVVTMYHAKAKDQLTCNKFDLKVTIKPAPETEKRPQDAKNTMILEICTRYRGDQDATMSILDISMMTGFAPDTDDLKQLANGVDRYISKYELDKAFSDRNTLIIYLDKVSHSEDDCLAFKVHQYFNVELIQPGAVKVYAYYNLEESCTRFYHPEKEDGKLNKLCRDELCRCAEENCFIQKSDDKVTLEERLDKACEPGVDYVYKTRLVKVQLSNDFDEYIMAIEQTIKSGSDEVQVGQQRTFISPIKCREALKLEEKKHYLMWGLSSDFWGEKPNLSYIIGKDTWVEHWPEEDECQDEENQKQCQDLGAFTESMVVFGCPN
Chain of Alexa Fluor 594 labelled human C3b (human) (P01024 23-667, chain 1 of 2): as the sequence (P01024 23-667, chain 1 of 2) above
Chain of Alexa Fluor 594 labelled human C3b (human) (P01024 749-1663, chain 2 of 2): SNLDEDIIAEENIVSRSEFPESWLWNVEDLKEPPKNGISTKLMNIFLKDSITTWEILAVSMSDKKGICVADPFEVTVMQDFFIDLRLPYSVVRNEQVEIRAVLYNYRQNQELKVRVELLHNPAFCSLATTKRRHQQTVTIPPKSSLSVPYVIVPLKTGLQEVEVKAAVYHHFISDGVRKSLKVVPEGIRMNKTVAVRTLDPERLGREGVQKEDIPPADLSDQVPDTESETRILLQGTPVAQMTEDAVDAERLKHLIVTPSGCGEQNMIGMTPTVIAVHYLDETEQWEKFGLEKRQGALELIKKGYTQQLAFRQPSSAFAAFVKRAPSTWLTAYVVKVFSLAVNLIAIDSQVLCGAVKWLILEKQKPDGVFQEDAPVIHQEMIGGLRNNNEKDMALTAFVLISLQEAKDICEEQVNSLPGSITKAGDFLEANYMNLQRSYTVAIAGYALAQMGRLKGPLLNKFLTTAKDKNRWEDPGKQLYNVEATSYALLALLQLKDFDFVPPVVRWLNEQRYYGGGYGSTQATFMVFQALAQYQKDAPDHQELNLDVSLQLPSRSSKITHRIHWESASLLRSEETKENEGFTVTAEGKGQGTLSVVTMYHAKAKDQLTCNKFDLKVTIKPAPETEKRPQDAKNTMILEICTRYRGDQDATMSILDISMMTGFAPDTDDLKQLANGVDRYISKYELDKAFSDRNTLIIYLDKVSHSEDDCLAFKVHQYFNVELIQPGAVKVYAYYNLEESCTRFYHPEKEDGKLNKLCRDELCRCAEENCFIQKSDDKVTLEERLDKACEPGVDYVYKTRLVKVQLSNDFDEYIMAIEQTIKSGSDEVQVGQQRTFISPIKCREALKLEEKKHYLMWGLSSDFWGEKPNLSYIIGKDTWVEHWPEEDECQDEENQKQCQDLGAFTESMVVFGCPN

With “C3MA, methylamine-treated human C3 (from UniProt P01024 23-667; P01024 672-1663) (natural protein)” the Kd [1] was 18 nM.
His-C3d Arg1134Ala (domain or fragment) gave a KD relative to wild type (so in the source) [1] of 30%.
In the case of “His-C3d, recombinant human C3d (domain or fragment)”, the Kd [1] is reported as 7 nM.
Substance “His-ISG65_(18-363) Trp211Ala (domain or fragment)” has a KD relative to wild type (so in the source) [2] of 42%.
Substance “His-ISG65_(18-363), extracellular domain of invariant surface glycoprotein 65 of T. b. gambiense (domain or fragment)” has a percent reduction of C3b surface binding to T. b. gambiense cells [3] of 60% and an AP50 haemolysis assay: lysis of rabbit erythrocytes in human serum after activation of the alternative pathway, soluble ISG65 7.5-0 µM [4] of less than 90%.
In the case of “His-ISG65_(18-363), extracellular domain of invariant surface glycoprotein 65 of T. b. gambiense T297A”, the percent of parent [5] is reported as 15%.
Work on “His-ISG65_(18-363), extracellular domain of invariant surface glycoprotein 65 of T. b. gambiense Y70A” yielded a percent of parent [5] of 36%.
“human complement C3a (from UniProt P01024 672-748) (domain or fragment)” was tested, and the Kd [6] was 80000 nM, the Kd [7] was 78000 nM and the Kd [8] was 18000 nM.
“human complement C3b (from UniProt P01024 23-667; P01024 749-1663) (domain or fragment)” gave a Kd [1] of 81 nM and a stoichiometry N [9] of 1.
With “native human complement C3 (from UniProt P01024 23-667; P01024 672-1663) (natural protein)” the Kd [1] was 130 nM.
